Source: paper PMC9098846, “Molecular insights into biogenesis of glycosylphosphatidylinositol anchor proteins” (Nature Communications, 2022)

Biological target: T1, PIGT, subunit of the human GPI transamidase (GPI-T) (human) (UniProt Q969N2)
T1 sequence (chain, disulfide bond from C182 to PIGK C92): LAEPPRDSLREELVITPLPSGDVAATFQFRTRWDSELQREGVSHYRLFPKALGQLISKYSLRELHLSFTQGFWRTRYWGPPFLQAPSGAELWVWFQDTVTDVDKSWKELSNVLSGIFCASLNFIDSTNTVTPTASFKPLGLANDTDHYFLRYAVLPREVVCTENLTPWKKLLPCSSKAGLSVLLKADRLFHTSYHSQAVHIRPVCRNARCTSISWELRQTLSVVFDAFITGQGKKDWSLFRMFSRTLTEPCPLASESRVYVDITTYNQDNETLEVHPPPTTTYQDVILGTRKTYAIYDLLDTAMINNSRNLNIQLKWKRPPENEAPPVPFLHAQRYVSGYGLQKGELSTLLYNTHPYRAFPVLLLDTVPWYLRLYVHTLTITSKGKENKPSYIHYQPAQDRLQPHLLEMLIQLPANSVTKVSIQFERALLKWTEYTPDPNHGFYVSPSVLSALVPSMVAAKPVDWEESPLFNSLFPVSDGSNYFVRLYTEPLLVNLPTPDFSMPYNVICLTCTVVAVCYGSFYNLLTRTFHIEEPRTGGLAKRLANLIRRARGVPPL

B1: PIGK C92A (enzyme)
chain: SHIEDQAEQFFRSGHTNNWAVLVCTSRFWFNYRHVANTLSVYRSVKRLGIPDSHIVLMLADDMAANPRNPKPATVFSHKNMELNVYGDDVEVDYRSYEVTVENFLRVLTGRIPPSTPRSKRLLSDDRSNILIYMTGHGGNGFLKFQDSEEITNIELADAFEQMWQKRRYNELLFIIDTCQGASMYERFYSPNIMALASSQVGEDSLSHQPDPAIGVHLMDRYTFYVLEFLEEINPASQTNMNDLFQVCPKSLCVSTPGHRTDLFQRDPKNVLITDFFGSVRKVEITTETIKLQQDSEIMESSYKEDQMDEKLMEPLKYAEQLPVAQIIHQKPKLKDWHPPGGFILGLWALIIMVFFKTYGIKHMKFIF
In the case of B1, the apparent GPI-T activity: surface staining of the reporter GPI-AP CD59 on PIGK knockout cells by flow cytometry, compared to the wild-type PIGK (% of wild-type) is reported as 61.
